Entries after “also recorded” stand apart in the source; their conditions may differ.
Assays:
HSA–Aβ interaction = test system: HSA–Aβ interaction; design: method as in 5 sources, ref [12] = [12]; PMID 30685090; doi:10.1016/j.bbrc.2019.01.081; 12. Litus E.A. Kazakov A.S. Sokolov A.S. Nemashkalova E.L. Galushko E.I. Dzhus U.F. Marchenkov V.V. Galzitskaya O.V. Permyakov E.A. Permyakov S.E. The binding of monomeric amyloid beta peptide to seru ||| ref [12],[13] = [12]; PMID 30685090; doi:10.1016/j.bbrc.2019.01.081; 12. Litus E.A. Kazakov A.S. Sokolov A.S. Nemashkalova E.L. Galushko E.I. Dzhus U.F. Marchenkov V.V. Galzitskaya O.V. Permyakov E.A. Permyakov S.E. The binding of monomeric amyloid beta peptide to seru || [13]; PMID 34072751; doi:10.3390/ijms22115896; 13. Litus E.A. Kazakov A.S. Deryusheva E.I. Nemashkalova E.L. Shevelyova M.P. Nazipova A.A. Permyakova M.E. Raznikova E.V. Uversky V.N. Permyakov S.E. Serotonin promotes serum albumin interaction with ||| ref [7] = [7]; PMID 10347147; doi:10.1074/jbc.274.23.15990; 7. Bohrmann B. Tjernberg L. Kuner P. Poli S. Levet-Trafit B. Naslund J. Richards G. Huber W. Dobeli H. Nordstedt C. Endogenous proteins controlling amyloid beta-peptide polymerization. Possible implic ||| ref [14] = [14]; PMID 29409811; doi:10.1016/j.jmb.2018.01.008; 14. Bode D.C. Stanyon H.F. Hirani T. Baker M.D. Nield J. Viles J.H. Serum albumin’s protective inhibition of amyloid-β fiber formation is suppressed by cholesterol, fatty acids and warfarin J. Mol. Bi ||| ref [13] = [13]; PMID 34072751; doi:10.3390/ijms22115896; 13. Litus E.A. Kazakov A.S. Deryusheva E.I. Nemashkalova E.L. Shevelyova M.P. Nazipova A.A. Permyakova M.E. Raznikova E.V. Uversky V.N. Permyakov S.E. Serotonin promotes serum albumin interaction with; details: cited from earlier work; for effect on HSA affinity toward monomeric Aβ: ref [12],[13]; for effect of HSA ligand on HSA–Aβ interaction: ref [14]
[1] = biological target: A21G mutant of amyloid-β peptide 1-40, Flemish variant of Aβ40 (human); assay: SPR; as a1, but with 100 uM ibuprofen (IBU) in the running buffer: Aβ immobilised by amine coupling and washed to monomer; analyte 0.5-8 uM HSA; 25 °C; 20 mM Tris-HCl, 140 mM NaCl, […] KCl, 1 mM MgCl2, […] CaCl2, pH 7.4; heterogeneous ligand model (two ligand populations L1 and L2)
[2] = biological target: A21G mutant of amyloid-β peptide 1-40, Flemish variant of Aβ40 (human); assay: SPR; Aβ immobilised by amine coupling on a ProteOn GLH chip (6000-9000 RU), non-covalently bound Aβ washed off (2% SDS, 100 mM HCl, 20 mM EDTA pH 8.0 with 1% SDS) to leave monomeric Aβ; analyte 0.5-8 uM HSA; no IBU; 25 °C; 20 mM Tris-HCl, 140 mM NaCl, […] KCl, 1 mM MgCl2, […] CaCl2, pH 7.4; heterogeneous ligand model (two ligand populations L1 and L2)

## CCCCC/C=C\C/C=C\C/C=C\C/C=C\CCCC(=O)O [arachidonic acid, arachidonic]
HSA–Aβ interaction
  effect on HSA affinity toward monomeric Aβ: enhance HSA affinity toward monomeric Aβ

## CC(C)CCC[C@@H](C)[C@H]1CC[C@H]2[C@@H]3CC=C4C[C@@H](O)CC[C@]4(C)[C@H]3CC[C@]12C [cholesterol]
HSA–Aβ interaction
  effect of HSA ligand on HSA–Aβ interaction: exert the opposite effect; also recorded: act in the opposite direction

## CCCCC/C=C\C/C=C\CCCCCCCC(=O)O [linoleic acid]
HSA–Aβ interaction
  effect on HSA affinity toward monomeric Aβ: enhance HSA affinity toward monomeric Aβ

## NCCc1c[nH]c2ccc(O)cc12 [serotonin]
HSA–Aβ interaction
  effect on HSA affinity toward monomeric Aβ: enhance HSA affinity toward monomeric Aβ

## N[C@@H](Cc1c[nH]c2ccccc12)C(=O)O [tryptophan]
HSA–Aβ interaction; ref [13]
  effect on the HSA–Aβ40/Aβ42 equilibrium: does not affect the HSA–Aβ40/Aβ42 equilibrium

## CC(=O)CC(c1ccccc1)c1c(O)c2ccccc2oc1=O (stereo not shown) [warfarin]
HSA–Aβ interaction
  effect of HSA ligand on HSA–Aβ interaction: exert the opposite effect; also recorded: act in the opposite direction

## human serum albumin (from UniProt P02768 25-609) (natural protein)
[1]
  Kd1 (ligand population L1): 8.2 pM
  ka1 (ligand population L1): 25000 M⁻¹ s⁻¹
  kd1 (ligand population L1): 2e-07 s⁻¹
  kd2 (ligand population L2): 1.03e-06 s⁻¹
[2]
  Kd2 (ligand population L2): 670 pM
  ka1 (ligand population L1): 30000 M⁻¹ s⁻¹
  kd2 (ligand population L2): 1.8e-06 s⁻¹

Source: article PMC9181795, “Ibuprofen Favors Binding of Amyloid-β Peptide to Its Depot, Serum Albumin” (International Journal of Molecular Sciences, 2022)
